As usually defined, the Kd is the constant that tells how readily two partners part at equilibrium.

16 molecules from US20030068675, “Position dependent recognition of GNN nucleotide triplets by zinc fingers” (published 2003) can be followed below.

Common to all, as to assay: EMSA
Conditions in all cases: tags: MBP fusion
On the technique in general: In EMSA bound probe runs differently from free probe, usually more slowly.

One series has as its target ZFP SBS#818 (synthetic). Put shortly:
(§1)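 Purified ZFP was titrated against labeled double-stranded target (1 nM or lower, at least 10-fold below expected Kd) carrying the natural binding site with flanks. Binding buffer was 10 mM Tris pH 7.5, 100 mM KCl, 1 mM MgCl2, 0.1 mM ZnCl2, 5 mM DTT, 10% glycerol, 0.02% BSA, with equilibration for at least 45 min. Bound and free target were separated on a 10% polyacrylamide gel.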

Another series addresses ZFP SBS#825 (synthetic). The procedure, abridged:
as §1

Another series concerns the target T1, ZFP SBS#840 (synthetic).
T1 chain: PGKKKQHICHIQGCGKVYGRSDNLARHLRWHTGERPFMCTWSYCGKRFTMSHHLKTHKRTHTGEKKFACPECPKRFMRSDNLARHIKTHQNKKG
Put shortly: as §1

The next series deals with T2, ZFP SBS#841 (synthetic).
T2 chain: T1 chain with M50Q, H52S, K55A, T56S
Put shortly: as §1

The next series deals with T3, ZFP SBS#839 (synthetic).
T3 chain: T1 chain with M50T, H52D, K55A, T56S
Put shortly: as §1

The target of the next series is T4, ZFP SBS#738 (synthetic).
T4 chain: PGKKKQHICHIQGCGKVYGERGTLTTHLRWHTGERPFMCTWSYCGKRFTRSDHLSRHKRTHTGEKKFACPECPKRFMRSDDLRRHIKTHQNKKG
Put shortly: as §1

Another series deals with T5, ZFP SBS#671 (synthetic).
T5 chain: T1 chain with M50D, S51R, H52S, H53N, K55T, T56R, N81E, A83R, R84T
Put shortly:
as §1

The target of a further series is T6, ZFP SBS#832 (synthetic).
T6 chain: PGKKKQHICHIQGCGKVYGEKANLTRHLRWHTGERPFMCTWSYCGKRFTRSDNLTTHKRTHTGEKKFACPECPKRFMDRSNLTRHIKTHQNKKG
Put shortly: as §1

Another series has as its target T7, ZFP SBS#833 (synthetic).
T7 chain: T6 chain with T56K
Put shortly:
as §1

A further series addresses T8, ZFP SBS#834 (synthetic).
T8 chain: T6 chain with N53H
Put shortly: as §1

Another series has as its target T9, ZFP SBS#837 (synthetic).
T9 chain: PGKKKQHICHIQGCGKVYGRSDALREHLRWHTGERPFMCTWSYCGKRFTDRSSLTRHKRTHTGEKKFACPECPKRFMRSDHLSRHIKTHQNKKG
Put shortly:
as §1

A further series deals with T10, ZFP SBS#849 (synthetic).
T10 chain: T9 chain with S83T, R84Q
The procedure, abridged:
as §1

The next series deals with T11, ZFP SBS#838 (synthetic).
T11 chain: T9 chain with S83T, R84A
Put shortly: as §1

In the next series the target is T12, ZFP SBS#847 (synthetic).
T12 chain: T1 chain with N23D, A25T, M50Q, H52G, K55T, T56R, A83T, R84T
The procedure, abridged:
as §1

The target in another series is T13, ZFP SBS#835 (synthetic).
T13 chain: T1 chain with S21A, N23T, A25R, M50Q, H52G, K55T, T56R, A83T, R84T
The procedure, abridged:
as §1

A further series deals with T14, ZFP SBS#770 (synthetic).
T14 chain: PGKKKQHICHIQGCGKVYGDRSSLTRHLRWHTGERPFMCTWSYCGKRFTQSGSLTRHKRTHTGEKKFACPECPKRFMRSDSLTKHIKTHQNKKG
The procedure, abridged:
as §1

A further series concerns the target T15, ZFP SBS#800 (synthetic).
T15 chain: T14 chain with D20E, S22G, S23T, T25A
The procedure, abridged: as §1

Another series has as its target T16, ZFP SBS#667 (synthetic).
T16 chain: T1 chain with R20D, S21R, D22S, A25T, M50R, H52D, H53E, K55R
The procedure, abridged: as §1

The next series has as its target T17, ZFP SBS#765 (synthetic).
T17 chain: T4 chain with T25A, T26R, H53N, S55A, R78E, S79R, D80G, D81T, R83A
The procedure, abridged:
as §1

The next series deals with T18, ZFP SBS#766 (synthetic).
T18 chain: T6 chain with K21R, A22G, N23T, T25A, T55A, T56R, N81D
The procedure, abridged: as §1

Another series concerns the target ZFP SBS#764 (synthetic). Put shortly:
as §1

The target of the next series is T19, ZFP SBS#797 (synthetic).
T19 chain: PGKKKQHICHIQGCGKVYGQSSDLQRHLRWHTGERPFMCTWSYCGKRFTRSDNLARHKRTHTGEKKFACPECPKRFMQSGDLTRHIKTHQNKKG
The procedure, abridged:
as §1

In the next series the target is T20, ZFP SBS#803 (synthetic).
T20 chain: T19 chain with N53E, A55Q, D81S
Put shortly:
as §1

The target in the next series is ZFP SBS#804 (synthetic). The procedure, abridged: as §1
A further series addresses ZFP SBS#831 (synthetic). The procedure, abridged: as §1
In another series the target is ZFP SBS#830 (synthetic). The procedure, abridged:
as §1

The next series deals with T21, ZFP SBS#669 (synthetic).
T21 chain: T6 chain with E20R, K21S, A22D, N23E, T25R, R26T, T55A, T56R
The procedure, abridged:
as §1

The target in a further series is T22, ZFP SBS#663 (synthetic).
T22 chain: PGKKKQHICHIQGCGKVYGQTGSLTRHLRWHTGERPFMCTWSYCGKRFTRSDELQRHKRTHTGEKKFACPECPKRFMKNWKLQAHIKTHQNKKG
Put shortly: as §1

In a further series the target is T23, ZFP SBS#664 (synthetic).
T23 chain: T22 chain with S51A, E53T, Q55R, K78A, N79S, W80S, K81R, Q83A, A84T
The procedure, abridged:
as §1

The target in the next series is ZFP SBS#662 (synthetic, UniProt P08047). The procedure, abridged: as §1
Sequence of ZFP SBS#662 (P08047 other isoform, or with tags, fused parts or gaps): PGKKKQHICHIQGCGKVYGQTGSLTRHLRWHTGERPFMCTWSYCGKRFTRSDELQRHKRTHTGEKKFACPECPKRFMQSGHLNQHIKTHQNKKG
Another series has as its target ZFP SBS#763 (synthetic). The procedure, abridged:
as §1

Residue numbers refer to the chain shown, from its start.

Sequence of ZFP SBS#831 (synthetic) (chain, as listed by the source): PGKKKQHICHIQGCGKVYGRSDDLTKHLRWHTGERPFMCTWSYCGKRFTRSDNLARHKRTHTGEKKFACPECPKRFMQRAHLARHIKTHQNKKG
Sequence of ZFP SBS#830 (synthetic) (chain, as listed by the source): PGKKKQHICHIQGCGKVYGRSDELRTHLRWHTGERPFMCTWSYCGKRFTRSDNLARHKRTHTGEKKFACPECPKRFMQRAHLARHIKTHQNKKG
Sequence of ZFP SBS#763 (synthetic) (chain, as listed by the source): as the sequence (P08047 other isoform, or with tags, fused parts or gaps) above, with Q20T, T21S, S23E, T25V, E53N, Q55A, H81S, N83T, Q84R counted along it

B1: GAATGGGCAG (dsDNA)
DNA 1: GAATGGGCAG
DNA 2: CTGCCCATTC
For B1, the Kd was determined as 167 nM in the series with ZFP SBS#818 and 37.3 nM with ZFP SBS#825.

B2: GAGTGTGAGG (dsDNA)
DNA 1: GAGTGTGAGG
DNA 2: CCTCACACTC
On to B2, for which the results for the Kd in the series with ZFP SBS#840, with ZFP SBS#841 and with ZFP SBS#839 were 625 nM, 300 nM and 625 nM, respectively.

B3: GCGGGGTCCG (dsDNA)
DNA 1: GCGGGGTCCG
DNA 2: CGGACCCCGC
Consider B3, for which the affinity in the series with ZFP SBS#738, expressed as Kd, was 120 nM.

B4: TCGGACGAGT (dsDNA)
DNA 1: TCGGACGAGT
DNA 2: ACTCGTCCGA
B4 showed a Kd with ZFP SBS#671 of 64 nM.

B5: GACTAGGACC (dsDNA)
DNA 1: GACTAGGACC
DNA 2: GGTCCTAGTC
For the molecule B5, the Kd is 408 nM with ZFP SBS#832, 136 nM with ZFP SBS#833 and 186 nM with ZFP SBS#834.

B6: GGGGCCCTGG (dsDNA)
DNA 1: GGGGCCCTGG
DNA 2: CCAGGGCCCC
B6: the equilibrium dissociation constant (Kd) was 222 nM in the series with ZFP SBS#837, 29.1 nM in the series with ZFP SBS#849 and 300 nM in the series with ZFP SBS#838.

B7: TAGGGAGCGT (dsDNA)
DNA 1: TAGGGAGCGT
DNA 2: ACGCTCCCTA
As for B7, the Kd with ZFP SBS#847 and with ZFP SBS#835 was 150 nM in each case.

B8: TTGGCAGCCT (dsDNA)
DNA 1: TTGGCAGCCT
DNA 2: AGGCTGCCAA
On to B8, for which the results for the Kd with ZFP SBS#770 and with ZFP SBS#800 were 325 nM and 400 nM, respectively.

B9: GAGTCGGACG (dsDNA)
DNA 1: GAGTCGGACG
DNA 2: CGTCCGACTC
B9: the affinity in the series with ZFP SBS#667, expressed as Kd, was 50 nM.

B10: GCCGAGGCCG (dsDNA)
DNA 1: GCCGAGGCCG
DNA 2: CGGCCTCGGC
For the molecule B10, the Kd in the series with ZFP SBS#765 and with ZFP SBS#766 was 262 nM each time.

B11: GCAGAGGCTG (dsDNA)
DNA 1: GCAGAGGCTG
DNA 2: CAGCCTCTGC
In the case of B11, the Kd in the series with ZFP SBS#764 was found to be 255 nM; with ZFP SBS#797, 17.5 nM.

B12: GCAGCGGCTC (dsDNA)
DNA 1: GCAGCGGCTC
DNA 2: GAGCCGCTGC
For the molecule B12, the Kd with ZFP SBS#803 amounted to 57.5 nM; with ZFP SBS#804 it was 82.5 nM.

B13: GGAGAGTCGG (dsDNA)
DNA 1: GGAGAGTCGG
DNA 2: CCGACTCTCC
B13: the Kd turned out to be 700 nM in the series with ZFP SBS#831 and 683 nM in the series with ZFP SBS#830.

B14: GACGAGTCGG (dsDNA)
DNA 1: GACGAGTCGG
DNA 2: CCGACTCGTC
Regarding B14, the equilibrium dissociation constant (Kd) with ZFP SBS#669 is 90 nM.

B15: AGAGCGGCAC (dsDNA)
DNA 1: AGAGCGGCAC
DNA 2: GTGCCGCTCT
B15: the Kd is 115 nM with ZFP SBS#663, 125 nM in the series with ZFP SBS#664 and 50 nM with ZFP SBS#662.

B16: GCAGAGGCTC (dsDNA)
DNA 1: GCAGAGGCTC
DNA 2: GAGCCTCTGC
Molecule B16 registered a Kd in the series with ZFP SBS#763 of 275 nM.
